This is an account of results in the domain aggregation screens of Martell et al. (2025).

The data set in a line: soluble fraction after stress (log2 fold change); higher = more stays soluble; pooled small domains, quantitative proteomics. The settings on record: stress: 50 degC. The essentials: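 The stress applied to every library was 50°C. These custom libraries of small protein domains were pooled and measured at high throughput with quantitative proteomics as the read-out. Aggregation propensity is expressed as the base-two logarithm of the fold change in how much of each protein remains soluble. The higher the value, the more of that protein stays in solution.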

With “HMKKALTAEQEARVRELYFRGINYYSANRYQDAIAEWRKVLAIDPNHEKAKNNIRQTLILLK”, the “soluble fraction (log2)” value is -0.257.

For the sequence “HMSKKAIVINLLKRPDGASLKDIMQATYWQAHSVRGFISGSLTKKMGLNVESFKRPDGERAYRIN”, the “soluble fraction (log2)” value is -2.3.

Regarding “HMLMKKTITHEIELLEFLKQIFPQSSTNKLRKMLSNGRIKINSEIVHKAKYKLQENDTFELLDNPT”, the “soluble fraction (log2)” value was -0.488.

For the sequence “HMNNTIKFSVDTTNSGKRLDIFLAENIKQFTRSYLKKIISNNQVKLNNLVANSPSIKVKHSDLILINILE”, the “soluble fraction (log2)” value is -1.82.

With “HMAEKAVELTENEKAIQTILSNGALEIGELKTKLELSGKQWDVALKGLAKHGITQVSKVEGVVTVGL”, the “soluble fraction (log2)” value amounted to 0.136.

As to “HMIRVVSIEDQPWFVAADVLKSLGMPTDKGVGKYLLALGSDERMLTTHGQIGGKGMAVTTIISESGLY”, the “soluble fraction (log2)” value is -0.46.

For “HMTPEGAYTVSEIVKVINSFADEYKVPFTMHVSGYKYEEIAQQLGLPIGTVKSRIFFARKRLQELLN”, the “soluble fraction (log2)” value was -0.952.

For “HMDKIEVVEVDMSKPYEDMTVTELQNVILDKLASNGPVTNQMKKDVSENIYHDSLVNWAKSF”, the “soluble fraction (log2)” value is 0.0697.

With “HMAAPVGLTQRQMEVAALVADGLTNAEIGRRLHITERSAESHLERVRIRLGFRSRAQVAAWFVTQE”, the “soluble fraction (log2)” value was -3.5.

With “HMGNWENVEKETTEAIMAVKNGEAVWVDLAPANRMIRQMQHELVEQYGLLSQSYGKEPKRRIRIFQNP”, the “soluble fraction (log2)” value is -0.337.

In the case of “HMGATYSQFLDQVDGGNVQKVTFSGDMRSGTNQISYTTRSGQSATITAPMDRDLINILRAKNVEIVQEEP”, the “soluble fraction (log2)” value came to 0.026.

On to “HMSIGLEDLIEQKGVADTDLRPSGWINVGNQRIFVVTEGSYIDQNDNVIILSVDGNRVVVRKI”, for which the “soluble fraction (log2)” value was -0.747.

On to “HMSVTPLLDATEKDKTKYRDLWLVAVVKNGVNYARKYKFGYVYAWLYRHDRDWLLQVNNQHKIPNIT”, for which the “soluble fraction (log2)” value amounted to 0.127.

Take “HMDLAENWKDDADITLAEYNAIRSRYKPGKLHRDTEFMIARDMLIRPETVLAIAHSRFSNVHTHPV”: the “soluble fraction (log2)” value was -0.945.

Turning to “HMPASVSAIRKYLGGGSFKGVGPALAKRIVDAFGEYTIETIENDPKQLAKVKGVSEKMALEINTQ”, the “soluble fraction (log2)” value was -0.0317.

As to “HMRITEGEIVEIQEGDNRALVGVGEKLEGIISLDEIRGADGKLLFNVGDKITVMVMGHYNERPK”, the “soluble fraction (log2)” value was found to be 0.15.

On to “HMNGAITLRVRPSDEGKRLDVFVVSQLTGYTRSFVAGLIGDRHFLVNGQPKKPGYRIKSSDTISGVIPAPA”, for which the “soluble fraction (log2)” value is -1.21.

Take “HMGEIILVPDVKAQGVSDARYTLNQAGLDAVIADSSYNRNSPPGAVLEQMPAPGSKVKSGHAIYLIINTT”: the “soluble fraction (log2)” value was 0.053.

As to “HMVSNFEAEFGRHFAIFFPGSEFTELKLRLLEEGAELIDPIRDTPFERFFFKDPNGYIFEVIDKE”, the “soluble fraction (log2)” value is -2.28.

As for “HMNNKSDLLFNHLRQRIATMENGTIFPSVRQLMTEYNVSQSTVSTAIRSLKELGLLEALSRQGMVVRKE”, the “soluble fraction (log2)” value was -0.476.

With “HMATMSIDERILEIRSRAGLTQQEMADRLFVTRQAVSRWERGETVPGIDTLRLIAEAFDVRVDQILEL”, the “soluble fraction (log2)” value is -1.69.

Turning to “HMASQVERGAVVVTDQRIFFIGVSSEGIEVHGTKIFGMSEKAPLYSHMKGLKKGDSFQFNGLKYVIQDIY”, the “soluble fraction (log2)” value is -3.39.

In the case of “HMVQVDNELTEFSVQSITRGIDALGEVTIRVTAPDGGVYTGRGADNDIIVSSTKAYLNALNRLLNDK”, the “soluble fraction (log2)” value is -0.229.

As for “HMAAINPSALREPATPPEQLSAGDSVLHPRFGRGEILELQQQGGDPRAIVQFINEPKPRTLVLRYAQLRK”, the “soluble fraction (log2)” value is -0.049.

In the case of “HMGDLAAAGNHTLEVMGFPQHPDESYRHFVGNGIPKLIERMLPAGHDKETEQKAYDIFMEYYSAHK”, the “soluble fraction (log2)” value came to 0.227.

As to “HMLNSLDATQRLKLNKDGVVVFNFGKYVDQSVIDIFKKEKGYYNWMMSKDFSQQVKNIITKIYQEEIIG”, the “soluble fraction (log2)” value was -0.982.

Turning to “HMEPTPREIVVQQLGYRGLEVLGNAEYQFPKETQIIILKLAELISSGSVTETLEGGKLLALFRGVGINVR”, the “soluble fraction (log2)” value is -1.59.

For “HMVAGQDPVKRQQILDGAKRVFLGVGFDAASMNDITREAGVSKGTIYVYFGSKEELFGALIDR”, the “soluble fraction (log2)” value was -0.663.

“HMQQVDWGSVFGDFGTMFKDQLQPTIDRLRRMAQSDTFRQSSLEEQQILYSLIEKLERSGTA”: the “soluble fraction (log2)” value was -1.03.

For the sequence “HMRKAERHLLIKQVIDEFTIRTQEELLAKLSDYGVNATQATISRDIRDLKIVKAPDENGISRFVFF”, the “soluble fraction (log2)” value is -0.964.

Turning to “HMAAGKGVTTGSVRLRKGSNTDSAIIATLKKDTELILYGKKDGWYSVKTSDGTEGFVSSKYVKVTEAY”, the “soluble fraction (log2)” value is 0.313.

With “HMNQYRKLDGDVQNQIIYILSEYPKLPATIVYQRLLDTNTIVKKDVSLSTVNRFVQKYKDSKGIT”, the “soluble fraction (log2)” value was -1.05.

As to “HMSIQQEATGNRIRELLLNNGYTVKDIQEVMGFENPQAVYKWLSGKSLPNLDNLLILSKVLHTSIEDILV”, the “soluble fraction (log2)” value is -0.699.

“HMTVDHDERRSMILEAFMRLAAREGLHAVSLRGVAAEAGISLRLVQYYFETKARLMQSGLTALET”: the “soluble fraction (log2)” value was -0.281.

Regarding “HMIQAGDLVFIWNPKKGDNFLIKVTPGMSQGTHFGQIKHTELMEREYGEGIVTPKGEVYYLLRPTLAGYTR”, the “soluble fraction (log2)” value was -0.973.

Consider “HMKKLTAEEIQEAKDILEKIQEIPNFKKIFGDDTIKALENSTKTGVLLPDNIISKIHTLMIRFGIK”, for which the “soluble fraction (log2)” value was found to be 0.237.

Consider “HMDDLIIQIELKQEGLEITGLKVLLKEDSVIDEQVKQTIRRKIERFLVNLYGNPNVYVSKFSMGI”, for which the “soluble fraction (log2)” value was -0.325.

Consider “HMNNPNFAIQKYVTGSDIKRVRKTLRLTQKKFAELVGVSKATMERWETKEDKITGPVVLLLKILEDHPEY”, for which the “soluble fraction (log2)” value is -1.3.

Regarding “HMTVLDYNENVLSKVMNAAEINDSDKEAFIAFAKDYNSDDNLYLKKEELETAAGAWNARNVE”, the “soluble fraction (log2)” value came to 0.358.

Regarding “HMQTLQTTSLRVSENQLFILDQQALPQEKRWLAADNVALLVDHIHTLRVRGAPLIGLSASLLLALLAGRLT”, the “soluble fraction (log2)” value was -0.0766.

Take “HMNREDYIKAIFKIAEREGEASNQRIADSLGVSRASASEMVKKLIQEGFVVAEGRQLSLSAEGERIA”: the “soluble fraction (log2)” value was 0.0824.

As for “HMAPLATLEAGEDGSVKLPNLAGHSIREVAAALGGAKLSLIPIGSGTSWKQTPAPGAVLHSGDTVTVYF”, the “soluble fraction (log2)” value was 0.142.

As for “HMLHPLLWAVDEPTPVTVRTRPEYVPDVVRWLMQPESQREHDGVVDLRYTVTHRAAFRSRIYVLGTRVTIP”, the “soluble fraction (log2)” value was -0.112.

For the sequence “HMTPVTYELTVQSGAGQRIDKYLSEQLADLTRSYLQKLLKDGGVTVNGKTVKSNYKLSENDQIFLEVPDA”, the “soluble fraction (log2)” value was 0.0372.

“HMLFKNASGTVVSRIQSQVDGQINIRTGSGNAPDYAFVAKPDGAVELYHNGTKQFETGSSGVLLP”: the “soluble fraction (log2)” value is -0.274.

As for “HMASFTDAQALEVKDLYPDWSKIPEGTHLEAGQRVRYNGNLYKVRTGQAHDKQSTWTPTDAASLFEAID”, the “soluble fraction (log2)” value is 0.116.

Regarding “HMLPDDDMLLNILTKLLIDKQFVINSHEIFDFIIKRANRSYEEMFILVNKLDQLSLEKKRQLTIPLIKEI”, the “soluble fraction (log2)” value was -0.652.

Regarding “HMFPELSPEEQLIVEVLSKTNDLQVNLISVKTNIDISRLTSLLFTLEMKGVIKTFAGGMYHLL”, the “soluble fraction (log2)” value is -0.538.

Regarding “HMYAEVTITIEKGMTSDSVSKLLYKAGIVDDAKEFNNYIIKAGKSTKILIGEFTIQKGASYDDIIKIIA”, the “soluble fraction (log2)” value is -1.37.

In the case of “HMVEPIKAPMPGMVLKILVEPGQQIEKGQGVLILEAMKMENVLKSSAAATVKSIKVSEKSAVEKGAILVEL”, the “soluble fraction (log2)” value is -0.109.

Regarding “HMQISDESQLREVVSKILEENEQSVIDYKNGKTRAMGFIIGQVMKATRGKANPQLVNEIVKEMLDE”, the “soluble fraction (log2)” value is 0.097.

For the sequence “HMPVTKSARQSRIGELIAREPVRSQSELAARLADDGIVVSQGTLSKDLLELGAVRVRTSSGELAYALL”, the “soluble fraction (log2)” value was -0.18.

For “HMKQVEVPRLVGLTLREAQAVLGQVGLRIGLISRAALLASPREQIVEQIPVAGERNIATPYVNLLVNVP”, the “soluble fraction (log2)” value is -0.649.

In the case of “HMGTKDVNAAPSAVGRTYDEAIEILNGYKAGYLEEYSDTVPKGTVISQSVQDGQVVIVVSLGPKPS”, the “soluble fraction (log2)” value came to 0.0391.

Turning to “HMNLGDSLFHARRKQGLSQEAVAEQLGVSRQTVSKWEANETLPDIRQSKLMAKLYHTSLDELI”, the “soluble fraction (log2)” value came to 0.00427.

As for “HMSSVDLLSERERQVLARISRGMSNEEIAAELAITPRTVRNHLANIYGKIDVHSRAEAVVWARERGIT”, the “soluble fraction (log2)” value came to 0.0251.

In the case of “HMNEISFYPNPAKESLTVKGLSEITSYSISDINGKLIQYGTTFDRINLEKLTKGFYFLTIGNTISKKLIV”, the “soluble fraction (log2)” value is -0.39.

As for “HMPENESPEEKHARFRRFAEGLMARLDENESVRDILPELKVWLDDRELDRDDQRLARNLMLTAGKRE”, the “soluble fraction (log2)” value amounted to 0.0802.

Consider “HMRLADHVVEKLLALVQDRGLQPGQKLPAERQLAEELGVSRTSVREAIQKLTSQGVLSARRGDGTYLQS”, for which the “soluble fraction (log2)” value was determined as 0.0556.

Take “HMREYVGLSPFNKEKTPSFYVNDEKGQFFDFSSGKNGDLITFLQETERLTFMEAVERLAAEAGLPMPA”: the “soluble fraction (log2)” value is -0.491.

Take “HMAPADLSPEERVVLDALALEPVHVDALAAKLGRRSEELLTSLTLMEMRGLAVAHAGSRYSRATMT”: the “soluble fraction (log2)” value is 0.0694.

As for “HMSTDKIDIVSSAILSSLKDNDGFIGLTDKSPPPEIYTAFRVSKKVFKQAIGALYKQRRITLESSGIRLIS”, the “soluble fraction (log2)” value was -0.193.

In the case of “HMSTPTVDTKTKLDLYNLLYKKDLNYLDAYNFVLDNFGSDNIDIMFKMLGLDFTNWVIENKPE”, the “soluble fraction (log2)” value is 0.0375.

As to “HMQVPVNVSMEILDWVIAHIKIDALPNQIREYLNLWVNGEKEPTFNQVEKVSKATGIPLGYFFLQTPPIED”, the “soluble fraction (log2)” value is -1.66.

As for “HMKPSTETLYATARINVRAAADTSAEKLGSIEMGEAVVRTGTDGDWSIIEYNGSTGYVKSEYLTANAGDAT”, the “soluble fraction (log2)” value was -0.0962.

As for “HMFKINQKVKLIAPLPYLKTSENMPMLRPPDLVAIDEIGEVLSLKSPETVEVRFRRGSFLIDIDKLEKVD”, the “soluble fraction (log2)” value is -0.219.

On to “HMGPLPIDSRYFNNLVPYTGITHVNSVIPEAERHIGLTVVVKTGSTYSEYWYRTGVTNSSLELKT”, for which the “soluble fraction (log2)” value was -0.634.

As for “HMRTAFPQLTERELEILDLIAAGRNNAQIASALYLAPKTVRNNVSNILAKLQATDRAEAIIRARDAGLGG”, the “soluble fraction (log2)” value was -0.0599.

Consider “HMTEFDVIMKSFGSEKIKVIKEVRAITGLGLAEAKALVEGVPAKIKEQVSKDDAEALKKQLEAVGAEVEL”, for which the “soluble fraction (log2)” value was 0.0379.
